Reference: patent publication US20070185028A1, “Compositions and methods for treatment of protein misfolding and protein aggregation diseases” (priority 2004, published 2007)

Each sequence was assayed against T1, porcine citrate synthase (CS) (Sus scrofa, UniProt P00889) (assay: αB crystallin protein pin array with citrate synthase). Details: CS as target protein in the pin array.
T1 construct: purchased Roche Diagnostics, IN 103 381
T1 sequence (P00889 28-464): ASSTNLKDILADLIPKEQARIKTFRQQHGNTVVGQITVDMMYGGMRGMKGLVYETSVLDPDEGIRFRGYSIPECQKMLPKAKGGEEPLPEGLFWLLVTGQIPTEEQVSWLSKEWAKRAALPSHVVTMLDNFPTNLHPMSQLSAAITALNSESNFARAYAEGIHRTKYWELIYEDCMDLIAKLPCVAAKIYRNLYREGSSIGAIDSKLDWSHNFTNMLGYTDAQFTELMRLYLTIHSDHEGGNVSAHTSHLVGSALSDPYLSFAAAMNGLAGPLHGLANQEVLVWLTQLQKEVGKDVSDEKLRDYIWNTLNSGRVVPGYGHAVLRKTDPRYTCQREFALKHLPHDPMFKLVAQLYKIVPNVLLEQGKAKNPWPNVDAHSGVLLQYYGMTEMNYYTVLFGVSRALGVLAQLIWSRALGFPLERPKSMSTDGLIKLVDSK
Format: binding
Excerpt: Synthesis of Pins, binding and detection of peptides binding to ligand proteins. The αB crystallin protein pin array was used to measure the interaction between peptides and chaperone target proteins including bovine βH crystallin, human γD crystallin, equine alcohol dehydrogenase (ADH) and porcine citrate synthase (CS) as described (FIG. 12). Ghosh and Clark, Protein Sci 14: 684-95, 2005.
Refer to the methods section for detailed protocols. The absorbance corresponding to the blue coloration in each well was measured at λ=450 nm and plotted against the amino acid sequence of the corresponding peptide in that well (FIGS. 13 and 14). Wells containing peptides that have strong interactions with target proteins are dark blue and wells containing peptides that have weak or no interaction with target proteins are light blue or clear.
The purity of the target proteins used in the pin array assays, bovine βH crystallin, human γD crystallin, equine alcohol dehydrogenase (ADH) and porcine citrate synthase (CS) were determined to be >90% by SDS-PAGE. In addition, primary antibodies for each target protein were specific to that target protein and consequently contaminating proteins that may bind to the peptides will not be detected. Eighty-four sequential and overlapping peptide fragments corresponding to residues 1-175 of human αB crystallin were synthesized employing a simultaneous peptide synthesis strategy developed by Geysen, called Multipin Peptide Synthesis (Mimotopes, San Diego, Calif.). Geysen, Southeast Asian J Trop Med Public Health 21: 523-33, 1990; Chin et al., J Org Chem 62: 538-539, 1997. Peptides were immobilized on derivatized polyethylene pins arranged in a microtiter ELISA plate format. Each peptide was eight amino acids in length and consecutive peptides were offset by two amino acids. All peptides were bound covalently to the surface of the plastic pins. The first peptide was 1MDIAIHHP8 and the last peptide was 168PAVTAAPK175 for human αB crystallin.
Ghosh and Clark, Protein Sci 14: 684-95, 2005. […] The intensity of the blue color in the wells was measured at 450 nm using an ELISA plate-reader (BioTek, Winooski, Vt.). The intensity of the blue color (plotted on the X-axis) was a measure of the interaction between αB crystallin peptides (plotted on the Y-axis) and target proteins. To measure the effect of temperature on the interactions between interactive peptides and the target proteins, the target proteins were heated in a water-bath at 45° C. for fifteen minutes prior to use. Pin arrays are unable to differentiate between monomers, dimers or oligomers of target proteins that exist in solution. Instead, pin arrays are very sensitive detectors of interactions between individual peptides and the entire population (monomers, dimers or oligomers) of specific target proteins that may exist in solution under specific conditions. Each target protein was assayed two to five times. A single pin array was used for all experiments and no change in interactions was observed after more than thirty repetitions. The last three peptides of the protein pin array, 163REEKPAVT170, 165EKPAVTAA172, 167PAVTAAPK174, correspond to the epitope (163REEKPAVTAAPKK175) recognized by the primary antibody for human αB crystallin. A positive reaction is observed for these three peptides in the absence of human αB crystallin as the ligand due to direct binding of the anti-human αB crystallin antibody to these three peptides. The loss of efficiency for the pin array was measured using this assay. The loss of efficiency for the pin array was determined to be <5% by after more than 30 assays.
The pattern of absorbance at λ=450 nm when αB crystallin peptides were assayed with unheated and pre-heated CS was similar to the absorbance pattern obtained with unheated and pre-heated βH/γD crystallin and ADH (FIG. 18). […]

Row | absorbance at 450 nm, interaction with CS | Sequence
1 | absorbance maxima | FSVNLDVK [Peptide 38]
2 | absorbance maxima | LTITSSLS [Peptide 66]
3 | absorbance maxima | WIRRPFFP [Peptide 5]
